Measurements published in publication PMC11973759 (Journal for Immunotherapy of Cancer, 2025).
Where no end group is shown, it is not given here.

B1: biotinylated TAMpep (peptide)
chain: VLTTGLPALISWIKRKRQQ
modifications: also: biotin, position not given here
B2: CD18 I-domain (Cloud-Clone) (domain or fragment)
chain: GYPIDLYYLMDLSYSMLDDLRNVKKLGGDLLRALNEITESGRIGFGSFVDKTVLPFVNTHPDKLRNPCPNKEKECQPPFAFRHVLKLTNNSNQFQTEVGKQLISGNLDAPEGGLDAMMQVAACPEEIGWRNVTRLLVFATDDGFHFAGDGKLGAILTPNDGRCHLEDNLYKRSNEFDYPSVGQLAHKLAENNIQPIFAVTSRMVKTYEKLTEIIPKSAVGELSEDSSNVVHLIKNAYNKL

Columns and labels:
[1] = biological target: CD18 cysteine-rich domain (Cloud-Clone); assay: SPR
biotinylated TAMpep = biological target: B1; assay: SPR

Row | Binder | Kd [1] | Kd (biotinylated TAMpep)
1 | B1 | 0.185 nM | 
2 | B2 |  | 4.7 nM
